Assay results taken from PMC5900708.

Target: human DOT1L^CC2 (second coiled-coil domain of DOT1L) (human) (UniProt Q8TEK3)
Assay: SEC

stoichiometry N: 2
Substance: human DOT1L^CC2 (second coiled-coil domain of DOT1L) (from UniProt Q8TEK3 1-1537) (domain or fragment)
